In paper PMC11629141:

Experiments:
[1] = biological target: S2N‐6G11 (S2N scFv fused to the N‐terminus of the 6G11 light chain via an MMP‐9 cleavable linker), prior to MMP‐9 digestion (human | chicken); test: BLI; 6G11 or light chain construct (5 µg/mL) loaded on Protein A biosensors; FcγRIIB 125 to 15.6 nM in 1:2 dilutions, 60 s association, 40 s dissociation in kinetics buffer
[2] = biological target: S2B‐6G11 post MMP‐9 digestion and partial removal of the scFv on a 6G11‐based affinity column (human); test: as above
[3] = biological target: 6G11 (BI‐1206), full‐length antibody containing the PGLALA Fc mutations (human); test: as above
[4] = biological target: FcγRIIB on Raji cells (human (endogenous in Raji)) (UniProt P31994); test: flow cytometry on cells; 250.000 Raji cells (FcγRIIB+, CD20+) with 6G11 or light chain constructs 1000-0.005 nM (1:5 dilutions), 30 min RT in PBS-B; anti-human Fc PE secondary antibody

Chain of S2N‐6G11 (S2N scFv fused to the N‐terminus of the 6G11 light chain via an MMP‐9 cleavable linker), prior to MMP‐9 digestion (human | chicken) (heavy, as listed by the source, chain 1 of 4): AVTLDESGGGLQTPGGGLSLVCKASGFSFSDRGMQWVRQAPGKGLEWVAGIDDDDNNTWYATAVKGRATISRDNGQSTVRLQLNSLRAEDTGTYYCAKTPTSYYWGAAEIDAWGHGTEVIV
Chain of S2N‐6G11 (S2N scFv fused to the N‐terminus of the 6G11 light chain via an MMP‐9 cleavable linker), prior to MMP‐9 digestion (human | chicken) (heavy, as listed by the source, chain 2 of 4): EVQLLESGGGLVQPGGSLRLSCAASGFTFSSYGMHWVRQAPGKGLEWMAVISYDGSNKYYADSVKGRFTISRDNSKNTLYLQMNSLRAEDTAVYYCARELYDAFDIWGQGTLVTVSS
Chain of S2N‐6G11 (S2N scFv fused to the N‐terminus of the 6G11 light chain via an MMP‐9 cleavable linker), prior to MMP‐9 digestion (human | chicken) (light, as listed by the source, chain 3 of 4): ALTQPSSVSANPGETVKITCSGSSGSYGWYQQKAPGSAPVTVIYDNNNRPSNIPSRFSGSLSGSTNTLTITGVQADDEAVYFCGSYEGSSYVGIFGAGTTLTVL
Chain of S2N‐6G11 (S2N scFv fused to the N‐terminus of the 6G11 light chain via an MMP‐9 cleavable linker), prior to MMP‐9 digestion (human | chicken) (light, as listed by the source, chain 4 of 4): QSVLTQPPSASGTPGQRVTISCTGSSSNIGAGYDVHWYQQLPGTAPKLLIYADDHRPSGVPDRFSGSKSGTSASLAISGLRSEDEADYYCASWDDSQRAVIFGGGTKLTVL
Chain of 6G11 (BI‐1206), full‐length antibody containing the PGLALA Fc mutations (human) (heavy, as listed by the source, chain 1 of 2): as the sequence (heavy, as listed by the source, chain 2 of 4) above
Chain of 6G11 (BI‐1206), full‐length antibody containing the PGLALA Fc mutations (human) (light, as listed by the source, chain 2 of 2): as the sequence (light, as listed by the source, chain 4 of 4) above
Chain of S2B‐6G11 post MMP‐9 digestion and partial removal of the scFv on a 6G11‐based affinity column (human) (heavy, as listed by the source, chain 1 of 2): as the sequence (heavy, as listed by the source, chain 2 of 4) above
Chain of S2B‐6G11 post MMP‐9 digestion and partial removal of the scFv on a 6G11‐based affinity column (human) (light, as listed by the source, chain 2 of 2): as the sequence (light, as listed by the source, chain 4 of 4) above

“His‐tagged human FcγRIIB extracellular domain protein (from UniProt P31994 43-217) (domain or fragment)” showed a Kd [1] of 8.3 nM, a Kd [2] of 5.9 nM and a Kd [3] of 32.1 nM.

Substance “6G11 (BI‐1206), full‐length antibody containing the PGLALA Fc mutations” has an EC50 [4] of 0.4 nM.
